{"source": "patent US5487994", "about": "“Insertion and deletion mutants of FokI restriction endonuclease” (The Johns Hopkins University)", "binders": {"B1": {"name": "unmethylated FokI substrate (dsDNA)", "DNA 1": "CTAGAGTCAGAATTCGAAGACTTGCCGGATGATCTGCAGGCCAGCTGTGGCGTCTAAATTGA", "DNA 2": "AGCTTCAATTTAGACGCCACAGCTGGCCTGCAGATCATCCGGCAAGTCTTCGAATTCTGACT"}}, "key": {"[1]": {"molecular_target": "FokI endonuclease wild-type (Flavobacterium okeanokoites, UniProt P14870 P14870:2-579)", "sequence (P14870 2-579, one chain of several)": "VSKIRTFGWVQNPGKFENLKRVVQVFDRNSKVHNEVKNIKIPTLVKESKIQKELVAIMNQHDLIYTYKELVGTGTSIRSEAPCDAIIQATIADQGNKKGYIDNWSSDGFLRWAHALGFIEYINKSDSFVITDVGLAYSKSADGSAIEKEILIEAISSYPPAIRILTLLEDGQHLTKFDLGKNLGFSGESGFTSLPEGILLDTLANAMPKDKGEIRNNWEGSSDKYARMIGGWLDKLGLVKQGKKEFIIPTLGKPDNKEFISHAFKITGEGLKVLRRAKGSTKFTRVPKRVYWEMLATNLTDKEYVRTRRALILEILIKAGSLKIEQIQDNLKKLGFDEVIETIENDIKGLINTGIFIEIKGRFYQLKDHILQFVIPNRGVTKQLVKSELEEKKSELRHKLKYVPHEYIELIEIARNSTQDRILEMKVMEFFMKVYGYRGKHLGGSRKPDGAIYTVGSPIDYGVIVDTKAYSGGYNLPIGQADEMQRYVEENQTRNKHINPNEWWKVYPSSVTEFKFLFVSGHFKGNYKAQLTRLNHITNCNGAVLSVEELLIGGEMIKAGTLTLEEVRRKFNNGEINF", "assay": "filter; with poly(dI-dC), 1 mM EDTA, 50 mM NaCl, 22 C; values only in figure", "conditions": "tags: expressed in E. coli RR1 from pRRSfokIR; label: 32P", "experimental": "(§1) The filter binding assays were performed in duplicate using *Fok*I or mutant enzymes and the four different synthetic substrates, SEQ ID NO:12, SEQ ID NO:13, hemi-methylated oligonucleotide of SEQ ID NO:12 and hemi-methylated oligonucleotide of SEQ ID NO:13. Nine different concentrations for each of the enzymes were made by serial dilutions ([…], 2000, 667, 222, 74.1, 24.7, 8.23, 2.74 and 0.914 nM). The enzymes were mixed with 40 nM of each labelled substrate along with 50 μg/ml p(dI-dC) and 50 μg/ml BSA in 50 μl of buffer A[10 mM Tris. phosphate (pH 8.0), 7 mM 2-mercaptoethanol, 1 mM EDTA, 50 mM NaCl, and 10% (vol/vol) glycerol]. The samples were incubated at 22° C. for 1 hr and then loaded on to nitrocellulose filters. The filters were washed twice with 0.5 ml of buffer A, dried and counted using the scintillation counter.\n(§2) Why does the four amino-acid residue insertions enable the mutant enzymes to cleave hemi-methylated DNA and not the larger inserts? The four codon insertions could increase the affinity of the mutants for the hemi-methylated DNA. The binding affinities of wild-type enzyme and both four codon insertion mutants were compared by filter binding assays using the synthetic oligonucleotide substrates (FIGS. 9A, 9B and 9C). The binding affinities were measured in the presence of non-specific DNA, poly dI-dC."}, "[2]": {"molecular_target": "FokI TAEL (+4) insertion mutant (Flavobacterium okeanokoites, UniProt P14870 P14870:2-579, insertion of TAEL after QLV in linker (linker SEQ 21))", "sequence (P14870 other isoform, or with tags, fused parts or gaps with the stated changes)": "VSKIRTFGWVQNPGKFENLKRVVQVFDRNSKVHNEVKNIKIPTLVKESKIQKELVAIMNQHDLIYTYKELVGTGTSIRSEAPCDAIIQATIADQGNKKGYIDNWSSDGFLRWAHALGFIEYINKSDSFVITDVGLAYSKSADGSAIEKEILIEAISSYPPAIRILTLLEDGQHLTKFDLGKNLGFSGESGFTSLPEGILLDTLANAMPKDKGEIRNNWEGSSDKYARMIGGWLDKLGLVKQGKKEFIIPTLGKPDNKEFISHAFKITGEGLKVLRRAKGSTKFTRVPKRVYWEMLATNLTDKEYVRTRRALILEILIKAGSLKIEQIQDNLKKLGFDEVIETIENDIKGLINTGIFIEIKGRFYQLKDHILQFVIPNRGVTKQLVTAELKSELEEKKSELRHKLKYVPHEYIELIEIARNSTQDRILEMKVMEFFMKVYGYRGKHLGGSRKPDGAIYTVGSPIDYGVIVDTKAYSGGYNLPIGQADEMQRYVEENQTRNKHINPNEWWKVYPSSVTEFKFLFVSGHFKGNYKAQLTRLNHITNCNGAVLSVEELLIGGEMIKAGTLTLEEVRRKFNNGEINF", "assay": "filter; similar to wild-type", "conditions": "label: 32P", "experimental": "as §1, §2"}}}
{"binder": "B1", "values": [{"measurement": "binding result", "setting": "[1]", "result": "binds"}, {"measurement": "binding result", "setting": "[2]", "result": "binds"}]}
